Several values for one entry are separate records, joined by “and”; a condition that tells them apart may be missing. Equal entries are not always repeated.
Assay: Phase 1 (1a/1b) pharmacokinetics: plasma concentrations after single IV dose (validated direct fluorescence reader assay), noncompartmental analysis
Type: in vivo, human
Settings: Phase 1a
Text: Phase 1 is a single-Principal Investigator, non-randomized, open-label, single-arm, cross-sectional study to evaluate the safety, PK profile, and imaging feasibility of Compound 1 in patients with solid cancers who require surgical excision. The main purpose of this study was to investigate the safety, PK, and feasibility of Compound 1 as an intra-operative optical imaging agent to detect tumors and metastatic lymph nodes in solid cancers. The study was intended to investigate the optimal dose range of Compound 1 for an adequate TBR and CNR of fluorescence obtained intraoperatively at 24 (±8) hours post dosing and with ex vivo specimens using ICG compatible cameras and imaging devices.
Phase 1 enrolled 30 patients with solid cancers (HNSCC, breast cancer, esophageal cancer, or colorectal cancer) who have a biopsy-confirmed diagnosis of respective tumor types and are scheduled to undergo surgical resection of the tumor. The study design included a standard 3+3 design for the dose-escalation portion (Phase 1a; N=18 maximum) followed by a dose-expansion portion (Phase 1b; N=15). All patients received a single I.V. dose of Compound 1, followed by routine surgery approximately 24 hours after infusion of Compound 1.
Phase 1a was a dose-finding study performed in 5 cohorts of 3 patients each. The dose levels evaluated were […], and 1.2 mg/kg, in this sequence. Inter-cohort dose escalation took place after the last patient in the previous cohort completed the Day 10 safety assessment. Safety, PK, and imaging feasibility were evaluated in both the Phase 1a and 1b portions of the study. Patient safety is assessed during the study and for up to 10 days post-dose.
Study design: Single Compound 1 IV dose was administered as a 1-5 minute IV infusion to patients in five cohorts (0.1, 0.3, 0.5, 0.8, and 1.2 mg/kg) with three patients per cohort in Phase 1a and 15 patients at a dose of 1.2 mg/kg in Phase 1b. Patient demographic information including tumor types is presented in Table 4 and 5 for Phase 1a and Table 5 for Phase 1b. Intertek Pharmaceutical Services (San Diego, Calif.) determined Compound 1 plasma concentrations using a validated direct fluorescence reader assay. Pacific BioDevelopment (Davis, Calif.) performed the PK analysis.
Sample collection: Blood samples were collected prior to infusion and at 10 minutes and 0.5, 1, 3, 8, 24, 48, 72, and 240 hours after infusion.
Analysis: Plasma concentration versus time profiles were generated for each patient. Pharmacokinetic parameters were estimated using Phoenix WinNonlin (version 8.0). According to SOP, concentrations reported as BQL were set to 0 except for the 0.5 h sample for subject #ON1102, which was set to LLOQ/2 ([…] value used in parameter calculations) and the 24 and 48 h samples.
If the coefficient of determination for the terminal slope estimation was less than 0.8, T1/2 was not reported (NR). AUC extrapolated to infinity is not reported for any data set because in all cases the % extrapolated AUC was greater than 20% and thus the AUCinf estimate would not be reliable. The concentration at 10 minutes, the first time point measured (C10m), was also reported for each patient.
The area under the plasma concentration versus time curves from dosing to the last time point with a measurable concentration (AUClast) was estimated by the linear trapezoid method. The last three or more time points were used to estimate the elimination rate constant (λz) which was used to estimate the terminal-phase half-life (T1/2) and AUC from zero to infinity (AUCINF) from the following equations: […]

[1] = 0.5 mg/kg single IV, individual subject
[2] = 0.8 mg/kg single IV, individual subject
[3] = 1.2 mg/kg single IV, individual subject

PEO90-140-b-P(DBA60-150-r-ICG0-3-r-AMA0-3) [Compound 1]
Cmax [1]: 22700 ng/mL and 17100 ng/mL and 14000 ng/mL
Tmax [1]: 3.00 h and 0.500 h
AUC0-24 hr (0.5 mg/kg single IV, mean): 289 µg·h/mL
AUCall (0.5 mg/kg single IV, mean): 835 µg·h/mL
AUClast (0.5 mg/kg single IV, mean): 410 µg·h/mL
C10 m (0.5 mg/kg single IV, mean): 17.3 µg/mL
Cmax (0.5 mg/kg single IV, mean): 17900 ng/mL
Tmax (0.5 mg/kg single IV, mean): 2.17 h
AUC0-24 hr (0.5 mg/kg single IV, median): 314 µg·h/mL
AUCall (0.5 mg/kg single IV, median): 314 µg·h/mL
AUClast (0.5 mg/kg single IV, median): 160 µg·h/mL
C10 m (0.5 mg/kg single IV, median): 16.2 µg/mL
Cmax (0.5 mg/kg single IV, median): 17100 ng/mL
Tmax (0.5 mg/kg single IV, median): 3.00 h
Plasma Conc (0.500 mg/kg, 0.170 hr, individual subject): 22.0 µg/mL and 16.2 µg/mL and 13.6 µg/mL
Plasma Conc (0.500 mg/kg, 0.170 hr, mean): 17.3 µg/mL
Plasma Conc (0.500 mg/kg, 0.500 hr, individual subject): 16.7 µg/mL and 15.9 µg/mL and 14.0 µg/mL
Plasma Conc (0.500 mg/kg, 0.500 hr, mean): 15.5 µg/mL
Plasma Conc (0.500 mg/kg, 1.00 hr, individual subject): 15.8 µg/mL and 13.8 µg/mL and 12.6 µg/mL
Plasma Conc (0.500 mg/kg, 1.00 hr, mean): 14.1 µg/mL
Plasma Conc (0.500 mg/kg, 3.00 hr, individual subject): 22.7 µg/mL and 17.1 µg/mL and 11.9 µg/mL
Plasma Conc (0.500 mg/kg, 3.00 hr, mean): 17.2 µg/mL
Plasma Conc (0.500 mg/kg, 8.00 hr, individual subject): 19.3 µg/mL and 14.6 µg/mL and 13.9 µg/mL
Plasma Conc (0.500 mg/kg, 8.00 hr, mean): 15.9 µg/mL
Plasma Conc (0.500 mg/kg, 24.0 hr, individual subject): BQL (BQL (<10 μg/mL), set = 0 for PK analysis) (2×) and 12.4 μg/mL
Plasma Conc (0.500 mg/kg, 24.0 hr, mean): 4.13 µg/mL
Plasma Conc (0.500 mg/kg, 48.0 hr, individual subject): BQL (BQL (<10 μg/mL), set = 0 for PK analysis) (2×) and 14.0 μg/mL
Plasma Conc (0.500 mg/kg, 48.0 hr, mean): 4.67 µg/mL
Plasma Conc (0.500 mg/kg, 72.0 hr, individual subject): BQL (BQL (<10 μg/mL), set = 0 for PK analysis) (2×) and 12.0 μg/mL
Plasma Conc (0.500 mg/kg, 72.0 hr, mean): 4.00 µg/mL
Plasma Conc (0.500 mg/kg, 240 hr, individual subject): BQL (BQL (<10 μg/mL), set = 0 for PK analysis)
Plasma Conc (0.500 mg/kg, 240 hr, mean): 0.00 µg/mL
Mean AUC0-24h (0.8 mg/kg): 383 µg·h/mL
Mean C10 (0.8 mg/kg): 19.8 µg/mL
Mean terminal-phase half-life (0.8 mg/kg): 79.0 h
AUC0-24 hr [2]: 416 µg·h/mL and 354 µg·h/mL and 380 µg·h/mL
AUCall [2]: 905 µg·h/mL and 518 µg·h/mL and 1790 µg·h/mL
AUClast [2]: 756 µg·h/mL and 354 µg·h/mL and 927 µg·h/mL
C10 m [2]: 21.7 µg/mL and 19.6 µg/mL and 18.2 µg/mL
Cmax [2]: 23000 ng/mL and 19600 ng/mL and 18200 ng/mL
T1/2 [2]: 74.5 h and 83.4 h
Tmax [2]: 1.00 h and 0.170 h
AUC0-24 hr (0.8 mg/kg single IV, mean): 383 µg·h/mL
AUCall (0.8 mg/kg single IV, mean): 1070 µg·h/mL
AUClast (0.8 mg/kg single IV, mean): 679 µg·h/mL
C10 m (0.8 mg/kg single IV, mean): 19.8 µg/mL
Cmax (0.8 mg/kg single IV, mean): 20300 ng/mL
T1/2 (0.8 mg/kg single IV, mean): 79.0 h
Tmax (0.8 mg/kg single IV, mean): 0.447 h
AUC0-24 hr (0.8 mg/kg single IV, median): 380 µg·h/mL
AUCall (0.8 mg/kg single IV, median): 905 µg·h/mL
AUClast (0.8 mg/kg single IV, median): 756 µg·h/mL
C10 m (0.8 mg/kg single IV, median): 19.6 µg/mL
Cmax (0.8 mg/kg single IV, median): 19600 ng/mL
T1/2 (0.8 mg/kg single IV, median): 79.0 h
Tmax (0.8 mg/kg single IV, median): 0.170 h
Plasma Conc (0.800 mg/kg, 0.170 hr, individual subject): 21.7 µg/mL and 19.6 µg/mL and 18.2 µg/mL
Plasma Conc (0.800 mg/kg, 0.170 hr, mean): 19.8 µg/mL
Plasma Conc (0.800 mg/kg, 0.500 hr, individual subject): 19.3 µg/mL and 17.6 µg/mL and 17.1 µg/mL
Plasma Conc (0.800 mg/kg, 0.500 hr, mean): 18.0 µg/mL
Plasma Conc (0.800 mg/kg, 1.00 hr, individual subject): 23.0 µg/mL and 18.2 µg/mL and 18.0 µg/mL
Plasma Conc (0.800 mg/kg, 1.00 hr, mean): 19.7 µg/mL
Plasma Conc (0.800 mg/kg, 3.00 hr, individual subject): 20.0 µg/mL and 14.4 µg/mL and 17.6 µg/mL
Plasma Conc (0.800 mg/kg, 3.00 hr, mean): 17.3 µg/mL
Plasma Conc (0.800 mg/kg, 8.00 hr, individual subject): 16.7 µg/mL and 15.1 µg/mL and 16.6 µg/mL
Plasma Conc (0.800 mg/kg, 8.00 hr, mean): 16.1 µg/mL
Plasma Conc (0.800 mg/kg, 24.0 hr, individual subject): 16.0 μg/mL and 13.7 μg/mL (2×)
Plasma Conc (0.800 mg/kg, 24.0 hr, mean): 14.5 µg/mL
Plasma Conc (0.800 mg/kg, 48.0 hr, individual subject): 12.4 μg/mL and BQL (BQL (<10 μg/mL), set = 0 for PK analysis) and 10.8 μg/mL
Plasma Conc (0.800 mg/kg, 48.0 hr, mean): 7.73 µg/mL
Plasma Conc (0.800 mg/kg, 72.0 hr, individual subject): BQL (BQL (<10 μg/mL), set = 0 for PK analysis) (2×) and 10.3 μg/mL
Plasma Conc (0.800 mg/kg, 72.0 hr, mean): 3.43 µg/mL
Plasma Conc (0.800 mg/kg, 240 hr, individual subject): BQL (BQL (<10 μg/mL), set = 0 for PK analysis)
Plasma Conc (0.800 mg/kg, 240 hr, mean): 0.00 µg/mL
Mean AUC0-24h (1.2 mg/kg): 495 µg·h/mL
Mean C10 (1.2 mg/kg): 31.7 µg/mL
Mean terminal-phase half-life (1.2 mg/kg): 36.5 h
AUC0-24 hr [3]: 348 µg·h/mL and 563 µg·h/mL and 574 µg·h/mL
AUCall [3]: 348 µg·h/mL and 1160 µg·h/mL and 1020 µg·h/mL
AUClast [3]: 184 µg·h/mL and 970 µg·h/mL and 891 µg·h/mL
C10 m [3]: 28.0 µg/mL and 34.1 µg/mL and 33.0 µg/mL
Cmax [3]: 28000 ng/mL and 34100 ng/mL and 33000 ng/mL
T1/2 [3]: 32.5 h and 46.5 h and 30.6 h
Tmax [3]: 0.170 h
